Experimental data from publication PMC4793259 (Journal of Extracellular Vesicles, 2016).

Biological target: epidermal growth factor receptor (Homo sapiens (A431, HeLa cells), UniProt P00533)
Experiment: flow cytometry on cells

binding result: no binding (tested: 5 µg/mL)
B1: GPI-anchored HA-tagged R2 nanobody (DAF-R2) displayed on Neuro2A extracellular vesicles (VHH)
VHH: QVQLQESGGGLVQAGGSLRLSCAASGRAASGHGHYGMGWFRQVPGKEREFVAAIRWSGKETWYKDSVKGRFTISRDNAKTTVYLQMNSLKGEDTAVYYCAARPVRVADISLPVGFDYWGQGTQVTVSS
